These results are taken from US20210386875.

The data set has as its target T1, [^125I]LS370.
T1 chain: XYXDEVDGKGC

B1: Caspase-3 (Cal Biochem) (protein)
chain: SGISLDNSYKMDYPEMGLCIIINNKNFHKSTGMTSRSGTDVDAANLRETFRNLKYEVRNKNDLTREEIVELMRDVSKEDHSKRSSFVCVLLSHGEEGIIFGTNGPVDLKKITNFFRGDRCRSLTGKPKLFIIQACRGTELDCGIETDSGVDDDMACHKIPVEADFLYAYSTAPGYYSWRNSKDGSWFIQSLCAMLKQYADKLEFMHILTRVNRKVATEFESFSFDATFHAKKQIPCIVSMLTKELYFYH
For the protein B1, the “hydrolysis by caspase-3 (radiochromatogram)” value was “[^125I]LS370 eluted at 19.5 min, and in the presence of caspase-3, the cleaved fragments eluted at 12.5 and 13 min”; the kcat (kinetic analysis of hydrolysis, radio-HPLC) was found to be 1.02 s⁻¹.
